Reference: patent US20220227866A1 (VELOSBIO, published 2022)
Several values for one entry are separate records, joined by “and”; a condition that tells them apart may be missing. Equal entries are not always repeated.

What was measured:
[1] = biological target: T1, soluble biotinylated human ROR1 extracellular domain (human, UniProt Q01973 30-406, biotinylated with EZ-Link Sulfo-NHS-LC-Biotin at a 1:5 molar ratio); experiment: ELISA, captured construct, biotinylated ROR1 titrated
T1 construct: Acro Biosystems cat; whole entry named; also called b-ROR1; soluble b-ROR1
T1 sequence (Q01973 30-406 limits assumed): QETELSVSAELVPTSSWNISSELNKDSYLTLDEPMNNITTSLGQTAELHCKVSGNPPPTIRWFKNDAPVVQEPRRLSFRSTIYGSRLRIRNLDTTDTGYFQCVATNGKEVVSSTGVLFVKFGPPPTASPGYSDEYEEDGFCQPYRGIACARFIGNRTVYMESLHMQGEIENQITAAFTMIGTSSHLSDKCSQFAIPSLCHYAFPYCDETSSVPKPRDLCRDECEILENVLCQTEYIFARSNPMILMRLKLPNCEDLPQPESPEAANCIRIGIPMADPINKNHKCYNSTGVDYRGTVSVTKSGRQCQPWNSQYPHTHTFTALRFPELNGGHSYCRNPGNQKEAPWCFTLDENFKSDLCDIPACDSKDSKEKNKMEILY

human ROR1 on cells [2] = biological target: T2, human ROR1 on cells (human, UniProt Q01973 30-937); experiment: cell-based or functional assay
T2 sequence (Q01973 30-937 limits assumed): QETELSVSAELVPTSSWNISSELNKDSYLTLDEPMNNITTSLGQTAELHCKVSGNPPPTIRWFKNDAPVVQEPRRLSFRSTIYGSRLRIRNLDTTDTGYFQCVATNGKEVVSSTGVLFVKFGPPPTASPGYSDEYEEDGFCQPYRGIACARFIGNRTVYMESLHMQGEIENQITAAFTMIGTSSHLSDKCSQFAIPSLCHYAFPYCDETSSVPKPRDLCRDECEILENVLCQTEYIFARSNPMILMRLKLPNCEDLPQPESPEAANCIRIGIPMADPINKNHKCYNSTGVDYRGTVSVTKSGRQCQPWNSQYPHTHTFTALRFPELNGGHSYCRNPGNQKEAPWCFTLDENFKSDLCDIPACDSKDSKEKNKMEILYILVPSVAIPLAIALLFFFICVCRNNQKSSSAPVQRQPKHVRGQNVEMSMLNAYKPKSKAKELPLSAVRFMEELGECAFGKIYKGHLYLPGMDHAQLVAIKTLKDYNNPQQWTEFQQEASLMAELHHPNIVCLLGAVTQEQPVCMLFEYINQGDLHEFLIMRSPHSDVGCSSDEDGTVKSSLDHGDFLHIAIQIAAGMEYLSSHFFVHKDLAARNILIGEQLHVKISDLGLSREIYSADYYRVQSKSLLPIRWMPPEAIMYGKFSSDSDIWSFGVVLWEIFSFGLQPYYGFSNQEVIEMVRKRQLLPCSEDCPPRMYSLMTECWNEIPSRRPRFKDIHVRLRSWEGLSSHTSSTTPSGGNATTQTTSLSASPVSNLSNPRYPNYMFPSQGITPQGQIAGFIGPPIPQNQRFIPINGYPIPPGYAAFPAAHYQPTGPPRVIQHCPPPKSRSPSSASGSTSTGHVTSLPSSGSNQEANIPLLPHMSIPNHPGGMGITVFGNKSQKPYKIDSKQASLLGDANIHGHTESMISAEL

[3] = biological target: T3, human CD3 on Jurkat cells (human, UniProt P09693 23-182; P04234 22-171; P07766 23-207); experiment: flow cytometry on Jurkat cells
T3 construct: GenBank NP_000064.1, NP_000723.1, NP_000724.1
T3 sequence (P09693 23-182 limits assumed, chain 1 of 3): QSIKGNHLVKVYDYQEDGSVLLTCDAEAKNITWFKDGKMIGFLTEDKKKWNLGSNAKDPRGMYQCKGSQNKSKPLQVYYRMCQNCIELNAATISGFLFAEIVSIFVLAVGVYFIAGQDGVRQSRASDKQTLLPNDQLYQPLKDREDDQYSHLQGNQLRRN
T3 sequence (P04234 22-171 limits assumed, chain 2 of 3): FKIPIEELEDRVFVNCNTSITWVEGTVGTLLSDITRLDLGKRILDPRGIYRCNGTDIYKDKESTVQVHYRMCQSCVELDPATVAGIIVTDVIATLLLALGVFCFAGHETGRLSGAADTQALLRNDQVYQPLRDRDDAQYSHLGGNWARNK
T3 sequence (P07766 23-207 limits assumed, chain 3 of 3): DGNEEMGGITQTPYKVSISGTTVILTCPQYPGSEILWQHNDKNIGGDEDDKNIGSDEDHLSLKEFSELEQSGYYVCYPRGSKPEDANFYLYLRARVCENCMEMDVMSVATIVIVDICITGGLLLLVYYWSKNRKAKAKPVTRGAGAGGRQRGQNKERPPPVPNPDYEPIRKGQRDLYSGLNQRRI
In short: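 Jurkat cells (2.5E5 per condition) incubated with bispecific molecule in PBS/2% FBS on ice for 20 min, then detected with PE-labelled anti-human Fc (1:500, 20 min on ice). Cells fixed in 2% paraformaldehyde and bound antibody measured by flow cytometry.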

human ROR1 on cells [4] = biological target: T2, human ROR1 on cells; experiment: flow cytometry, ROR1-transfected MEC cells, 30 µg/mL
Protocol: Internalization of bispecific binding molecules was measured using a pulse-chase methodology that quantitates non-internalized, cell surface antibody at 0, 30, 60, 120, 180, and 240 minutes using flow cytometry. ROR1-transfected MEC cells were washed with cold PBS and resuspended at 1×10⁷ per mL in cold incubation buffer (RPMI with 2% FBS—Fisher/Gibco cat. #16140071). Then, 3.5×10⁶ cells were aliquoted to microcentrifuge tubes for each bispecific construct tested. An equal volume (350 μL) of bispecific binding molecule was combined with the cells to make a final concentration of 30 μg/mL. […] Cells and antibody were incubated on ice for 20 minutes, washed five times with 1 mL of cold FACS buffer (PBS with 2% FBS), and resuspended in 1.4 mL of incubation buffer. Subsequently, the samples were incubated at 37° C. for 0, 30, 60, 120, 180, and 240 minutes after which time 200 μL of each sample was transferred to ice to halt internalization.
Samples for each construct and timepoint were split in half (100 μL each) and spun down. Half of the samples were resuspended in 100 μL secondary antibody (goat anti-human IgG-PE, Fc-gamma specific—eBiosciences cat. #12-4998) to detect bound bispecific constructs. The other half was stained with 100 μL cocktail of UC961-PE and 4A5-AlexaFluor647. […] Subsequently, fixed cells were washed once with FACS buffer and analyzed.

[5] = biological target: T4, recombinant human ROR1 extracellular domain (human, UniProt Q01973 30-406); experiment: ELISA, immobilised ROR1 ECD, construct titrated
T4 construct: Bought (Acro Biosystems cat. R01-H522Y); whole entry named; also called ROR1-ECD; immobilized ROR1
T4 sequence (Q01973 30-406 limits assumed): as the sequence (Q01973 30-406 limits assumed) above

Kd [1]: 0.226 nM
EC50, LDH release, ROR1-transfected MEC (human ROR1 on cells [2]): 12 ng/mL and 96 pM
Max. LDH Release, ROR1-transfected MEC (human ROR1 on cells [2]): 46%
binding result [3]: binds
binding extent relative to the saturated MFI of constructs 1 and 7 at time 0 (human ROR1 on cells [4]): ~80%
Kd [5]: 0.194 nM
B1: Bispecific construct 13 (bispecific antibody, human IgG1, kappa)
heavy 1: not shown
heavy 2: QVQLVQSGGGVVQPGRSLRLSCKASGYTFTRYTMHWVRQAPGKGLEWIGYINPSRGYTNYNQKVKDRFTISRDNSKNTLYLQMDSLRAEDTAVYYCARYYDDHYSLDYWGQGTTVTVSSGGGGSGGGGSGGGGSGGGGSDIQMTQSPSSLSASVGDRVTITCSASSSVSYMNWYQQKPGKAPKRWIYDTSKLASGVPSRFSGSGSGTDFTFTISSLQPEDIATYYCQQWSSNPFTFGQGTKLEIKEPKSSDKTHTCPPCPAPEAAGAPSVFLFPPKPKDTLMISRTPEVTCVVVDVSHEDPEVKFNWYVDGVEVHNAKTKPREEQYNSTYRVVSVLTVLHQDWLNGKEYKCKVSNKALPAPIEKTISKAKGQPREPQVYTLPPSRDELTKNQVSLSCAVKGFYPSDIAVEWESNGQPENNYKTTPPVLDSDGSFFLVSKLTVDKSRWQQGNVFSCSVMHEALHNHYTQKSLSLSPGK
light: DIVMTQTPLSLPVTPGEPASISCRASKSISKYLAWYQQKPGQAPRLLIYSGSTLQSGIPPRFSGSGYGTDFTLTINNIESEDAAYYFCQQHDESPYTFGEGTKVEIKRTVAAPSVFIFPPSDEQLKSGTASVVCLLNNFYPREAKVQWKVDNALQSGNSQESVTEQDSKDSTYSLSSTLTLSKADYEKHKVYACEVTHQGLSSPVTKSFNRGEC
notes: ROR1 arm Ab1; CD3 valency 1, ROR1 valency 1
